Measurements taken from paper PMC8716928.

Molecular target: Fragment F109–221 of GvpF, split-GFP fusion (Halobacterium salinarum)
Experiment: split reporter (BiFC, NanoBiT); split-GFP (mGFP2) in Hfx. volcanii transformants, entire Gvp proteins and fragments (Figure 7); arrangement of the GFP portions not stated; relative fluorescence (rf) of cells against untransformed WR340

MAQPDSSGLAEVLDRVLDKGVV [Fragment A1–22 of GvpA, split-GFP fusion] was tested, and the relative fluorescence (rf) was < 4 rf.

B1: GvpA, entire protein, split-GFP fusion (natural protein)
chain: MAQPDSSGLAEVLDRVLDKGVVVDVWARVSLVGIEILTVEARVVAASVDTFLHYAEEIAKIEQAELTAGAEAAPEA
With B1 the relative fluorescence (rf) was < 4 rf.
